Measurements as given in patent US20180021429A1 (PHARMA FOODS INTERNATIONAL, published 2018).

Experiments:
[1] = molecular target: T1, His-tagged mouse FSTL1 (amino acid sequence of mouse FSTL1 used in Examples, SEQ ID NO: 72) (mouse, UniProt Q62356 19-306); experiment: ELISA, mouse FSTL1 coated (FIG. 3B)
T1 sequence: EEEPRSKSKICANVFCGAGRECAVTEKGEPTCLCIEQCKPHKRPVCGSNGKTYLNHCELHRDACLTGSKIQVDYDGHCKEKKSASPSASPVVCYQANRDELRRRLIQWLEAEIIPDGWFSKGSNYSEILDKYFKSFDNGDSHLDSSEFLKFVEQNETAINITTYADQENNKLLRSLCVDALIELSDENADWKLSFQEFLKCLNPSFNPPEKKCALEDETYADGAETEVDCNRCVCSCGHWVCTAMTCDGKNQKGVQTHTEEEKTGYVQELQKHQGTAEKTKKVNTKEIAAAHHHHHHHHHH

[2] = molecular target: T2, His-tagged human FSTL1 (amino acid sequence of human FSTL1 used in Examples, SEQ ID NO: 70) (human, UniProt Q12841 21-308); experiment: ELISA, human FSTL1 coated (FIG. 3A)
T2 construct: Parent of the deletion mutants
T2 sequence: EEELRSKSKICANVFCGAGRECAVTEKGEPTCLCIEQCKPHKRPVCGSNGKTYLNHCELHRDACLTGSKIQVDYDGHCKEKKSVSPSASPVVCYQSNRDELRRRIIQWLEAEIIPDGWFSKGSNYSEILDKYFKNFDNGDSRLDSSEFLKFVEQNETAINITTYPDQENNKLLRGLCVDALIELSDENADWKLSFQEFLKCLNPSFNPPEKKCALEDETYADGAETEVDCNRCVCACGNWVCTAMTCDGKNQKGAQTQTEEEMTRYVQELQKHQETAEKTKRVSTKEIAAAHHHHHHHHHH

binding result [1]: binds
binding result [2]: binds
B1: anti-FSTL1 antibody clone #22 (chicken-mouse chimeric antibody) (antibody, mouse IgG1, kappa, V domains shown)
VH: AVTLDESGGGLQTPGGALSLVCKASGFTFSSNGMAWVRQAPGKGLELVARINSSGSYTNYGAAVKGRATISRDNGQSTVRLQLNNLRAEDTGTYYCAKGASGYGAYPGNIDAWGHGTEVIVSS
VL: ASTQPSSVSANPGETVKITCSGGSGSYGWFQQKSPGSAPVTVIYWDDRRPSDIPSRFSGSKSGSIHTLTITGVQADDEAVYLCGNAVRSGTGYVGVFGAGTTLTVLG
